Consider three molecules from patent US9688764B2, “Methods of treating breast cancer by administering anti-human prolactin receptor (PRLR) antibodies” (REGENERON PHARMACEUTICALS, INC., priority 2013, dated 2017).

By Kd is commonly meant a measure of binding affinity in units of concentration. A high value points to weaker binding.

Assay [1] has as its target T1, T47D (native PRLR expressing cell line) (Homo sapiens, UniProt P16471).
T1 construct: a native PRLR expressing cell line (T47D); endogenous in cells; host or cells: T47D
T1 sequence (P16471 25-622): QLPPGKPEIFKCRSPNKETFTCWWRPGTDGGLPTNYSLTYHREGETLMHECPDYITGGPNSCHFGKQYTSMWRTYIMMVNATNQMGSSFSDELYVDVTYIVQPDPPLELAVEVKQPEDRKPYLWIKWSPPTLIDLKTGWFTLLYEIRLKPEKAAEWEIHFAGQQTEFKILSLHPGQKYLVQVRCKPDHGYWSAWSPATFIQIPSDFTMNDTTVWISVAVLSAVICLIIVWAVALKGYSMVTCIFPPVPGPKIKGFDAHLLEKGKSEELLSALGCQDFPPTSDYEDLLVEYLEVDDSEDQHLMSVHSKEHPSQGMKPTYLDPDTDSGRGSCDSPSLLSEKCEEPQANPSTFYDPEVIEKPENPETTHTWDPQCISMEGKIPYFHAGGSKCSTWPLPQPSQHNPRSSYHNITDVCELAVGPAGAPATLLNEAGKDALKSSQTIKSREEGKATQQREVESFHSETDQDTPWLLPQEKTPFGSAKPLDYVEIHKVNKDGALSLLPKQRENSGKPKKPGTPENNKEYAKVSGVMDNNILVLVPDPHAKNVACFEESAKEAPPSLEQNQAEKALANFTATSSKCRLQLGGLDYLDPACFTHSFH
The experiment in a line: FACS cell surface binding. A digest of the protocol: (§1)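 HEK293 lines stably expressing HA-tagged human, cynomolgus or mouse PRLR, native-expressing T47D and parental HEK293 tested by flow cytometry. Cells (1×10^5) stained with primary antibody 30 min on ice, then PE anti-human secondary; MFI expressed as fold over isotype control.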

The next assay has as its target T2, HEK293/hPRLR (Homo sapiens, UniProt P16471).
T2 construct: HA; expressed in transfected cells; host or cells: HEK293
T2 sequence (P16471 25-622): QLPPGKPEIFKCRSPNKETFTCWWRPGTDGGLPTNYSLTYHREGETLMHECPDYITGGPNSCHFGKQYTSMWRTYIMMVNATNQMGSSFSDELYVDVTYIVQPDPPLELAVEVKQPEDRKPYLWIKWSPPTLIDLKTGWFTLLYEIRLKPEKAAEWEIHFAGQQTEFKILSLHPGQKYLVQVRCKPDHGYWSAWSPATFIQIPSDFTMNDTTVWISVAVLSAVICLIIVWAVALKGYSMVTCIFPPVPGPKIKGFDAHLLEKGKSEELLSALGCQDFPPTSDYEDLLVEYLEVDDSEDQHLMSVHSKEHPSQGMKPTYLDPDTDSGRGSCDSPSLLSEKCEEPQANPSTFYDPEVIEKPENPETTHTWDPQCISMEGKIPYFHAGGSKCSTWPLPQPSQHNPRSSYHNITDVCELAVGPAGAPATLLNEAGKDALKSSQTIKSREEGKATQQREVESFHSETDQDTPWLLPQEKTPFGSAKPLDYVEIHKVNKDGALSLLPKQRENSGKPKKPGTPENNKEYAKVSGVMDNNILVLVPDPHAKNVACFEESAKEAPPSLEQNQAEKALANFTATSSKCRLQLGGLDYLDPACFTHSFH
In words: FACS cell surface binding. The method, boiled down: as §1

Assay [2] concerns HEK293 (non-expressing parental cells). In words: FACS cell surface binding. A digest of the protocol: as §1
A further assay concerns the target T3, HEK293/mPRLR (Mus musculus, UniProt Q08501).
T3 construct: HA; expressed in transfected cells; host or cells: HEK293
T3 sequence (Q08501 20-608): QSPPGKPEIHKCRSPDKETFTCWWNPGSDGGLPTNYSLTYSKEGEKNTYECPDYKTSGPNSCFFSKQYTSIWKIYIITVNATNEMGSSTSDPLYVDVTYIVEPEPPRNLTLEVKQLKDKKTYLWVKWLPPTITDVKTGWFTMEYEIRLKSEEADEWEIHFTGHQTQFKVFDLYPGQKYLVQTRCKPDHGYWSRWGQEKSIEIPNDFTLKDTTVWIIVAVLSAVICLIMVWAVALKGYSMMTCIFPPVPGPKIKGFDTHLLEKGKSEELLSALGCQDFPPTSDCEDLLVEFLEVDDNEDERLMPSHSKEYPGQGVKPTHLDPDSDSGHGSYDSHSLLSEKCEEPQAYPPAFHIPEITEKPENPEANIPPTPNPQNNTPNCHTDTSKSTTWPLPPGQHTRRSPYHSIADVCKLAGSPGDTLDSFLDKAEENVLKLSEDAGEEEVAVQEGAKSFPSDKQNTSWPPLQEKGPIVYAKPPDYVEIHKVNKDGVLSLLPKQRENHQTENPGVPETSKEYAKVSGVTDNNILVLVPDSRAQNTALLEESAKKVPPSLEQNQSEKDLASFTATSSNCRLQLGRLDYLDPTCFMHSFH
The experiment in a line: FACS cell surface binding. A digest of the protocol: as §1

Assay [3] concerns the target T4, hPRLR.mmh (soluble monomeric human PRLR) (Homo sapiens, UniProt P16471).
T4 construct: soluble monomeric (hPRLR.mmh); mmh (myc-myc-hexahistidine)
In words: Surface plasmon resonance (Biacore T200), mAb-capture format. The following applies: antibody-capture format, analyte hPRLR.mmh. Format: binding. A digest of the protocol:
(§2)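 Antibodies expressed as human IgG1 Fc variants were captured on an anti-human Fc sensor surface, then soluble PRLR protein was injected as analyte: monomeric human or cynomolgus PRLR.mmh, or dimeric human PRLR.mFc. ka and kd came from a 1:1 binding model fit.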
In general terms: In SPR one partner is held on a chip, and binding of the other changes the refractive index at the surface.

Assay [4] deals with mfPRLR.mmh (monomeric macaca fascicularis PRLR). Described as above. Format: binding. The following applies: antibody-capture format, analyte mfPRLR.mmh. The method, boiled down: as §2
For assay [5], the target named is T5, hPRLR.mFc (soluble dimeric human PRLR) (Homo sapiens, UniProt P16471).
T5 construct: dimeric (hPRLR.mFc)
Described as above. Format: binding. The following applies: antibody-capture format, analyte hPRLR.mFc. The method, boiled down: as §2

T4 sequence (P16471 with tags, fused parts or gaps): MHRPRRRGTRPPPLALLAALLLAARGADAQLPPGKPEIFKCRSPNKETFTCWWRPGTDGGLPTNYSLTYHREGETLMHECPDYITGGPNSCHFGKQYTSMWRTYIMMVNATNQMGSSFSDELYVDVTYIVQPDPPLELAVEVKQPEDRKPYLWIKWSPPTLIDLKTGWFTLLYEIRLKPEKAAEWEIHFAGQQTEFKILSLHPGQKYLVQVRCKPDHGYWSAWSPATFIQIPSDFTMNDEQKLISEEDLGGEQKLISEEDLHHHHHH
Chain of mfPRLR.mmh (monomeric macaca fascicularis PRLR) (as listed by the source): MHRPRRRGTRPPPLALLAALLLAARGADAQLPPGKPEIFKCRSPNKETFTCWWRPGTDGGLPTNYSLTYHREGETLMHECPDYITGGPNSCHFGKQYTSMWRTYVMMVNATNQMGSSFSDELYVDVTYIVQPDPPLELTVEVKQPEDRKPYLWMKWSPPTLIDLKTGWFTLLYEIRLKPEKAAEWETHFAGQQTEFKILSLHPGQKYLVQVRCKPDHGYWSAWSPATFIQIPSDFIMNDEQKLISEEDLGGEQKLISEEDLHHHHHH
T5 sequence (P16471 with tags, fused parts or gaps): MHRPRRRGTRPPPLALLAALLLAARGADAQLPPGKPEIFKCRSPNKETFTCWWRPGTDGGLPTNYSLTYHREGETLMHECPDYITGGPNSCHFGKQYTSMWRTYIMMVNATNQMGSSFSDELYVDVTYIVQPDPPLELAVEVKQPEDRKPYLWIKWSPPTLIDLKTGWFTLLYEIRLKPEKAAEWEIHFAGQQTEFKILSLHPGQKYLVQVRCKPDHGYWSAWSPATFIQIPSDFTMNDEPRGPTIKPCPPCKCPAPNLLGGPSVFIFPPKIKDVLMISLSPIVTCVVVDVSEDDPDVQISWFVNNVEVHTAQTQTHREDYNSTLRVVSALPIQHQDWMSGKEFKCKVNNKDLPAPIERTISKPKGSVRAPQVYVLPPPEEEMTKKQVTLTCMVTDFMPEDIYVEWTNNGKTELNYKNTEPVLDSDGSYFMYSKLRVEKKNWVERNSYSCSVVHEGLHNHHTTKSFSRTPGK

B1: H1H6782P: anti-PRLR antibody, human IgG1 Fc; HCVR/LCVR SEQ ID NOs 66/74; non-blocking (antibody, V domains shown)
VH: EVQLVESGGGLVQPGRSLRLSCAASGFTFDDYAMHWVRQAPGKGLEWVSGIIWNSGHIGYGDSVKGRFTISRDNAKKSLYLQMNSLRAEDTALYYCARDSGRYQSYFDYWGQGTLVTVSS
VL: DIQMTQSPSTLSASVGDRVTITCRASHIISSWLAWYQQKPGKAPKVLIFKASSLESGVPSRFSGSGSGTEFTLTISSLQPDDFATYYCQQYNTYSRTFGQGTKVEIK
modifications: human IgG1 Fc
Take B1: the “FACS Cell Binding (Fold Above Background)” value in assay [1] was found to be 43 Fold Above Background; with HEK293/hPRLR, 41 Fold Above Background; in assay [2] it was 3 Fold Above Background; with HEK293/mPRLR it was 4 Fold Above Background. Also, the Kd turned out to be 685 pM in assay [3] (25° C.); 1280 pM in assay [3] (37° C.); 1050 pM in assay [4] (25° C.); 1990 pM in assay [4] (37° C.); 225 pM in assay [5] (25° C.); 217 pM in assay [5] (37° C.). Also, the T½ in assay [3] (25° C.) amounted to 47 min; in assay [3] (37° C.), 16 min; in assay [4] (25° C.) it was 41 min; in assay [4] (37° C.), 15 min; in assay [5] (25° C.) it was 162 min; in assay [5] (37° C.), 89 min.

B2: H1H6785P: anti-PRLR antibody, human IgG1 Fc; HCVR/LCVR SEQ ID NOs 98/106 (antibody, V domains shown)
VH: EVQLVESGGGLVQPGGSLRLSCAASGFTFSSYEMNWVRQAPGKGLEWISYISSRGGTIYYADSIKGRFTIYRDNARNSLYLQMNSLRAEDTAIYYCARLSGVDIFDIWGQGTMVTVSS
VL: DIQMTQSPSSLSASVGDRVTITCRASQGISNYLAWYQQKPGKVPKLLIYFASTLQSGVPSRFSGGGSGTDFTLTISSLQPEDVATYYCQRYNSAPLTFGGGTKVEIK
modifications: human IgG1 Fc
On to B2, for which the “FACS Cell Binding (Fold Above Background)” value was found to be 40 Fold Above Background in assay [1], 37 Fold Above Background with HEK293/hPRLR, 1 Fold Above Background in assay [2] and 2 Fold Above Background in the assay with HEK293/mPRLR. The dissociation constant Kd in assay [3] (25° C.) worked out at 567 pM; in assay [3] (37° C.), 1140 pM; in assay [4] (25° C.), 738 pM; in assay [4] (37° C.) it was 1520 pM; in assay [5] (25° C.) it was 231 pM; in assay [5] (37° C.), 256 pM. The T½ came out at 68 min in assay [3] (25° C.); 24 min in assay [3] (37° C.); 69 min in assay [4] (25° C.); 26 min in assay [4] (37° C.); 190 min in assay [5] (25° C.); 99 min in assay [5] (37° C.).

B3: H1H6790P: anti-PRLR antibody, human IgG1 Fc; HCVR/LCVR SEQ ID NOs 114/122 (antibody, V domains shown)
VH: EVQLVESGGGLVQPGGSLRLSCAASGFTFSSYAMTWVRQAPGKGLEWVSAITGSVGNTYYADSVKGRFTISRDNSKNTLYLQMNSLGAEDTAEYYCAKGAGMTTNWYLDLWGRGTLVTVSS
VL: DIVMTQSPDSLAVSLGARATINCKSSQSVLYSSNNQNYLTWYQQKPGQPPKLLIKWASTRESGVPDRFSGSGSGTDFTLTISSLQAEDVAVYYCQQYASSPYTFGQGTKLEIK
modifications: human IgG1 Fc
For the molecule B3, the “FACS Cell Binding (Fold Above Background)” value in assay [1] came to 34 Fold Above Background; in the assay with HEK293/hPRLR, 37 Fold Above Background; in assay [2], 1 Fold Above Background; with HEK293/mPRLR it was 1 Fold Above Background. Further, the Kd in assay [3] (25° C.) came to 1410 pM; in assay [3] (37° C.), 3500 pM; in assay [4] (25° C.), 2040 pM; in assay [4] (37° C.) it was 5220 pM; in assay [5] (25° C.) it was 192 pM; in assay [5] (37° C.) it was 306 pM. For the same molecule, the T½ in assay [3] (25° C.) stood at 14 min; in assay [3] (37° C.), 4 min; in assay [4] (25° C.) it was 15 min; in assay [4] (37° C.), 4 min; in assay [5] (25° C.) it was 111 min; in assay [5] (37° C.), 58 min.
